In paper PMC8613289:

Key:
Assay in all cases: TurboID proximity biotinylation, streptavidin pull-down, MS-based proteomics
Conditions in all cases: biotin for 1 h; n = 5; read off a plot
Nup214 = Nup214 (UniProt P35658)
AHCTF1 = molecular target: AHCTF1
RANGAP1 = molecular target: RANGAP1
Nup50 = Nup50 (UniProt Q9UKX7)
NDC1 = molecular target: NDC1
RanBP2 = RanBP2 (UniProt P49792)
NUPL2 = molecular target: NUPL2

Row | Substance | other: Student's T-test Difference WT NLS1 (Nup214) | other: Student's T-test Difference WT NLS1 (AHCTF1) | other: Student's T-test Difference WT NLS1 (RANGAP1) | other: Student's T-test Difference WT NLS1 (Nup50) | other: Student's T-test Difference WT NLS1 (NDC1) | other: Student's T-test Difference WT NLS1 (RanBP2) | other: Student's T-test Difference WT NLS1 (NUPL2) | other: Student's T-test Difference WT NLS2 (Nup214) | other: Student's T-test Difference WT NLS2 (AHCTF1) | other: Student's T-test Difference WT NLS2 (RANGAP1) | other: Student's T-test Difference WT NLS2 (Nup50) | other: Student's T-test Difference WT NLS2 (RanBP2)
1 | EphA2-V5-TurboID (wild-type EphA2) (from UniProt P29317) NLS1 (RRR>AAA in the juxtamembrane stretch …, as read from Fig. 3a; no residue numbers printed) | 2 | 0.5 | 1.8 | 2.5 | -1 | 1.5 | -1.6 |  |  |  |  | 
2 | EphA2-V5-TurboID (wild-type EphA2) (from UniProt P29317) NLS2 (two K>A in the stretch …, as read from Fig. 3a; no residue numbers printed) |  |  |  |  |  |  |  | 2.9 | 1.3 | 2.6 | 3.1 | 2.1
